Experimental findings from the DeepSol protein solubility set are described below.

This series in a line: soluble on expression in E. coli; label from the status in PepcDB or PDB records.
For the sequence “MGSDKIHHHHHHMDNSEEKKLEALGAFEISRKMLALAQKNEKSNIFLNAGRGNPNWIQTLARLAFVRLVQFGVTESKLTINNGIMAGYINTDGIRERLFAFLDPDKNDEDKFLIDAVNYCHTELGLNRDKVVAEWVNGAVANNYPVPDRCLVNTEKIINYFLQELSYKDANLAEQTDLFPTEGGTAAIVYAFHSLAENHLLKKGDKIAINEPIFTPYLRIPELKDYELVEVDLHSYEKNDWEIEPNEIEKLKDPSIKALIVVNPTNPTSKEFDTNALNAIKQAVEKNPKLMIISDEVYGAFVPNFKSIYSVVPYNTMLVYSYSKLFGCTGWRLGVIALNEKNVFDDNIAHLDKVELRQLHKRYSSVVLDPDKMKFIDRLCADSRSIGLYHTAGLSTPQQIMEALFSMTHLLTSTNGGSDDPYIDIARKLVSERYDQLHDAMQAPKDETDTNTHYYSLIDIYRLAEKIYGKEFRDYLTNNFEQVDFLLKLAEKNGVVLVDGVGFGAKPGELRVSQANLPTEDYALIGKQVLELLKEYYEEFKQNN”, the “soluble on expression in E. coli” value is recorded as “not soluble”.
Then “MGSDKIHHHHHHCVRVPTLMIVPEAAQSGVAETVFVASNRVFANGQFQSARQDDVTYTRFTVQIPQDRDAGAVRPGRARRTGPNLRTDFVASDGVHLGGEGRFQSELLAEARRRGTSEVMVFIHGFASSIGTGIYRTAQIRYDFEVPGVAVHYAWPSSGSYIGYAYDRDSALFARDGLEELITGIMQTDLDVVLVAHSLGSSVVMEVLRQLRIAGRNALIDRIHGVILFSPDLDVDVFRSQASRIGDLPQPFVIFTSQRDQALTFSSIMAGRTARVGNLATADQVAEFDVTLIDVSAFEGGVRDRLNHFAGATSQSAVQILRDAAQINSAFEDGPDARPGLLPGTILTIQNATLVLLDPEHAR”, with “not soluble”.
Regarding “MMFWDSEVAKRLLAQGALRPLDVQFARFIGKQAVLAGHNAAESELLSVLSAALSAELGRGHICLPLCDAQGNRCDLAALIGLYGEASLQHSERWLAVDWQALLQASPLVGQQGEAVPLMFDGSRLYLHRYWHYEKQLAARLTELAAPQRLSPAELANLRERLNTLFARDYLGLWQALQQKPLSSVERIQLLNDRLDVVESDALDWPAIEAVVEKAQRAADLQALEQLIPLTHCLNWQKVAAAVALTRRFAVISGGPGTGKTTTVTKLLAALISQSMAQGKVPEIKLIAPTGKAAARLTESMGKAVSQLAIEPEIAAAIPSSSSTIHRLLGAIPGSAEFRHHTRNPLHLDLLVVDEASMVDLPLMVKLVEALPKHARLILLGDKDQLASVEAGAVLGDICTFLNQGYGHEQGAQLAELTGFATLRQTASKTVNPVADCLCMLQKSYRFDARSGIGQLAKAINSGSPARVEAVWQQSFSDIEHFALSGEHYQQLLQTLVQAYRPYLSLLNQPTEQFESTQQSMLTLAKSALDAFSRCRLLCALREGDFGVMGLNTRIERALNAHKLIKTQEEIWYHGRPIMVTRNDHGLGLYNGDIGLCMRDRDDDQGRLKVYFELPDGSIKAVLPSRVPQHETAYAMTIHKSQGSEFDLTLLILPPDYSPILTRELVYTGITRAKKQLKLYCDNKVLQRAIKVKTQRASGLVARLEQ”, the “soluble on expression in E. coli” value is on record as “not soluble”.
With “MRGSHHHHHHGSIEGRSAVTCDDYYYGFGCNKFCRPRDDFFGHYACDQNGNKTCMEGWMGPECNRAICRQGCSPKHGSCKLPGDCRCQYGWQGLYCDKCIPHPGCVHGICNEPWQCLCETNWGGQLCDKDLNYCGTHQPCLNGGTCSNTGPDKYQCSCPEGYSGPNCEI” the entry was “soluble”.
Regarding “MKIAILGAGCYRTHAAAGITNFMRACEVAKEVGKPEIALTHSSITYGAELLHLVPDVKEVIVSDPCFAEEPGLVVIDEFDPKEVMEAHLSGNPESIMPKIREVVKAKAKELPKPPKACIHLVHPEDVGLKVTSDDREAVEGADIVITWLPKGNKQPDIIKKFADAIPEGAIVTHAATIPTTKFAKIFKDLGREDLNITSYHPGCVPEMKGQVYIAEGYASEEAVNKLYEIGKIARGKAFKMPANLIGPVCDMCSAVTATVYAGLLAYRDAVTKILGAPADFAQMMADEALTQIHNLMKEKGIANMEEALDPAALLGTADSMCFGPLAEILPTALKVLEKHKVVEEEGKTKCEIMSQKE”, the “soluble on expression in E. coli” value is “soluble”.
On to “MKVELTAIEARVIGCLIEKEVTTPDQYPLSLNALTNASNQKSNREPVMALSESDVLDAVDALIERRLVSDESAFNSRVSKYQHRFCNTEFGDLKLSEQEKGIICCMLLRGAQTPGEIRTRTNRLATFHDVKEVEAVLEHLASEEKGPLVVKLPREAGKRESRYMHLFCGEVDVSAMAAAVPATSSSSVRIAQLEQEVAELREELDALKAQVESLLS”, for which the “soluble on expression in E. coli” value is recorded as “not soluble”.
Then “MLNQSLRPLVNVQVRSVSSKYPRPTPRHFKRRLFEAALKPELPPTVNMCIPPGLIKREHTGKSKEYSDVELALSNLVRDWMVREEFRVMAVCQFLPVPGRTLWFAKNQLRSKNIEFRSYGNKILKKIFDKTPMSSLNTVLVGNNAILLAKDISAIKSILQETDKLNWIEPLVMMADGRIVDMVDARELAKLSSLEDLRAHTVQLLGQQVAQVTISLDTVTRHLPSLLDSHISTNQEAKK”, with “not soluble”.
Consider “MSLTSYHSHPPKAYRRFESVCTQAPNAIAVVDEGKLVTYQQLQTQVLERSEALIRQGLADHPYMPLMANRCLEYLITMLACCKLGITYVSIEPGTPSKRLIAVLEQLGCNHLLLLGQPTDLRPDPTLTCFRLDDCGTLCYDGPALRPPIRRRLDDASVITVMFTSGTTGLPKGVRISHDGLLNLVDNVQQQVQGKPRSYVHHSSIGFDAALFEVWVPLLTGACVTLQPGAFNIDALDHCVRAASCDVLLLTTSLFHLVAQHRLSMLDAVRVLYVGGEVLKPVHARALLLANPRITLVNGYGPTENTVFSTWYSLNKPEDAERDVMPIGQFLHQVYGKIVDAKLQEVEVGTPGELLLTGANLALGYLDDALTQTRFLQLPEGTYYRTGDYVIEDEHGMLFYQGRIDEQVKIKGFRVEIAEVEHALTQLPGVAQAVVQAHVMNDLEKSLHAFIVLRHGSPTIEESKLMSLLGDRLPHYMVPRRIHYLAELPLTANGKVDKRSLQPPEKAAAAPPQAGSAVLDIWSGILGTRNLQLEHSIYGYGASSLSVVMAHSRINEILGRTTPFDEVARLSTFQEWVQYYATHEDPVTSLRSQHGNEGHHHHHH”, for which the “soluble on expression in E. coli” value was “not soluble”.
As for “MGSDKIHHHHHHMTTSTPSASPLALSPSRANDYQQCPLLYRFRAIDKLPEPKTVAQVKGTLVHAVLEEMHGWPRNERLFPAAVKRLKPHWSLMCSKDTELVSLVPEEDTYDFLVECRSLLRGYFEMENPQGFDALACEMYVNATLPNGVPIRGFIDRVDKAPTGEIRVVDYKTGKKPIPRFSQQAQFQMRFYALVYWRIYGRIPDQLRLMYLKVADSMFLTPSREELEYFERDIQELWEKIVTDGETGQFRPKTSKLCGWCSFQNLCPAFDGTPPAYPGWPGIADAPPCSTVDASKGLTG”, the “soluble on expression in E. coli” value is given as “not soluble”.
With “MGSDKIHHHHHHMALKEEIYYNSPIFIQNILTSMYGKKLMQERYGPGYEKKLQELRVKDRTVDYRIEQLERLNTFLLFIQEHTPYYRKLFQEHDIRLPFTSLDQLQTIPILEKETLRQQNEAFMSEVDAPVRGRTGGTSGKSLQVAFMREDVQERMAHLDYFKELHGFRSGMRRASFTGRTLTAINQKKPIFWRKNRPLNQLLLSIFHMKEENFPAYIEELNRFRPAALDGTPTAMLEIALYLLKHELRLDFPLVAIFPTSETVTPEMRRLLEEAFQAPVFDQYGSSEGAPIISECRERKLHLHHETGIIEPYGDGGEVVVTCFTTRGTPLVRYRIGDRMTLGQEACTCGLNGPVIESIDGRGTSYIVSEKRGKVFEGDITTIARELPNSVLRLQVEQHELNHVTLRYIPDEQRFVPKHEKILLREMQKLLGSSMKVTLEPVQQMKQEPNGKTLIVKQSMK”, the “soluble on expression in E. coli” value was “not soluble”.
As to “MGSDKIHHHHHHMALLFSGGTMSQVQSGILPEHCRAAIWIEANVKGEVDALRAASKTFADKLATFEAKFPDAHLGAVVAFGNNTWRALSGGVGAEELKDFPGYGKGLAPTTQFDVLIHILSLRHDVNFSVAQAAMEAFGDCIEVKEEIHGFRWVEERDLSGFVDGTENPAGEETRREVAVIKDGVDAGGSYVFVQRWEHNLKQLNRMSVHDQEMVIGRTKEANEEIDGDERPETSHLTRVDLKEDGKGLKIVRQSLPYGTASGTHGLYFCAYCARLHNIEQQLLSMFGDTDGKRDAMLRFTKPVTGGYYFAPSLDKLMAL”, the “soluble on expression in E. coli” value is “not soluble”.
Turning to “MGSDKIHHHHHHMYRLSQYETPLFTALVEHSKRNPIQFHIPGHKKGQGMDPEFREFIGHNALAIDLINIAPLDDLHHPKGMIKEAQDLAAAAFGADHTFFSIQGTSGAIMTMVMSVCGPGDKILVPRNVHKSVMSAIIFSGAKPIFMHPEIDPKLGISHGITIQSVKKALEEHSDAKGLLVINPTYFGFAADLEQIVQLAHSYDIPVLVDEAHGVHIHFHDELPMSAMQAGADMAATSVHKLGGSLTQSSILNVKEGLVNVKHVQSIISMLTTTSTSYILLASLDVARKRLATEGTALIEQTIQLAEQVRDAINDIEHLYCPGKEMLGTDATFNYDPTKIIVSVKDLGITGHQAEVWLREQYNIEVELSDLYNILCLVTFGDTESETNTLIAALQDLSATFKNKADKGVQVQVEIPEIPVLALSPRDAFYSETEVIPFENAAGRIIADFVMVYPPGIPIFTPGEIITQDNLEYIRKNLEAGLPVQGPEDMTLQTLRVIKEYKPIS”, the “soluble on expression in E. coli” value is on record as “not soluble”.
For the sequence “MSLTQMNYAKEGIFTKEMQIVAQKENLSKDFLLENIACGKIIIPANINHKSLDPNGIGFGLRTKVNVNLGVSNDCVDYSEEMKKVELAHKFGIEAIMDLSNYGKTSRFRDELVNVSKAMIGTVPVYDAVGFLEKDLKQINAKDFLDVVYHHAKSGVDFMTIHAGINSRAAHIFKQSKRLTNIVSRGGSVLYAWMMMKDAENPFFEYYDDLLDICLKYDVTLSLGDALRPGSTHDASDGAQISELIELSLLTQRAWDVGIQVMIEGPGHMAINEIEANMQLEKRLCKGAPFYVLGPLVTDIGAGYDHISGAIGGAVAAASGADMLCYVTPAEHLRLPNLEDVREGIVATKIAAHAGDIAKLPKERARDDEMSKARQEIDWEKMFKLAIDGEKAKKMFNERRPDDLNSCSMCGKMCAMNTMNQILKGEDVSLAEGHHHHHH”, the “soluble on expression in E. coli” value is “soluble”.
Then “MGSDKIHHHHHHDDDNTANPAEEVVKASKKHDTAILLCTFGSTFKESIKTYDATLADFQNAFPDADIYLSFTSRTCVNRVEAETGIARYQPDLWLQALGNAGYKKVAVQSLHIIPGEEYLSLMNTDVKKKFMIESFPSVQVVKSPCLVYNEEDVEAVAKVLYSHYSDKLADNKNILLLMGHGNPDKNYNANTKYTETEEAMQALAANKNVFVGTVDYGDMLFWPEEGEPNEECVYSKLTKYCEDHNLKPEEITISLAPFMSIAGDHAHNDLWGIEEGDDFSAAAPNADACWRLKLLKMGFKIDTKESHNGSLENCKIIGLGDYDAVRQIWVNHLKALYNDAEAWETGEDYQ”, with “not soluble”; and “MDVSQWEQFAKHRSAVIRDYGMWIGLMDNNMEPIVDMPAPVSIDAPITRMTPSSCKAVFKTRVDGHIHPMVDYLIAENLAKVDEQGQLIAAAQDAVFLAIEVAQGIRNVYKGVFTVALGDQESPTLLEFNGVCEIQWTLGALPCPSAPYSWTGKWVDLNQDWAGKWSKTRTMADIKVAEVADGFTLSGAADTTIGKLISQSLQAINTMLKSKGRSLPIAVKPVTSNPTSPQLVIRPTDRFIWDEISDLALAAGVTVKCKTWWPSDPPVPGLDLKEPIVVIEITQEE”, with “not soluble”.
On to “PKKDWLSYVVSSKARNKIKQQLRLQMESSIGVVKELLNRRLKNRKLPFEEAVFTRVVRRKGFKHLTDFYMEIAADRLDVQEVLELYSHELEEE”, for which the “soluble on expression in E. coli” value was “not soluble”.
In the case of “MGSDKIHHHHHHMPQFSPSYSFPVQIYYEDTDFSGVVYHPNFLKYFERAREHVIGAEQLRNLWQQQQLGFAVYRSDMLCHEGVEFADIIDIRTKFYFESKYRTVWHQEIWRPNGKKPAVTATIEMVCMNQARQLAPMPAELITQLSLGM”, the “soluble on expression in E. coli” value was “not soluble”.
